Data published in PMC5618543, “Differences in Sulfotyrosine Binding amongst CXCR1 and CXCR2 Chemokine Ligands” (International Journal of Molecular Sciences, 2017).

Legend:
[1] = target: T1, CXCL8 (Homo sapiens, UniProt P10145); assay: 1H-15N HSQC NMR titration ([…] sY, […]N-CXCL8); type: binding
T1 sequence (P10145 23-99): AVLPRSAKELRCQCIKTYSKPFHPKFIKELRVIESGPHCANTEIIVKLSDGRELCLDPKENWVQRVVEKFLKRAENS

[2] = target: CXCR2 (Homo sapiens) (UniProt P25025); conditions: cited from earlier work
[3] = target: CXCR1 (Homo sapiens) (UniProt P25024); conditions: cited from earlier work
CXCR1 (Homo sapiens), sequence (P25024 whole entry): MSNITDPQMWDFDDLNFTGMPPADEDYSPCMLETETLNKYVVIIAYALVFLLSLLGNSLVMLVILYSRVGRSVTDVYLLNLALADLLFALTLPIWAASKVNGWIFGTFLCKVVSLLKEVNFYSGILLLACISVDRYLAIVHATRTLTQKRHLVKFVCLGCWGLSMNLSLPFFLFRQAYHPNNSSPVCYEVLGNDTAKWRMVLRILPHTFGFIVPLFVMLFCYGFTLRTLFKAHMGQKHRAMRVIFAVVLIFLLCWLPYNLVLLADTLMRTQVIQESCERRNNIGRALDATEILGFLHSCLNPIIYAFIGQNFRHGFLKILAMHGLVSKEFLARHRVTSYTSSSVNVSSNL

CXCR2 (Homo sapiens), sequence (P25025 whole entry): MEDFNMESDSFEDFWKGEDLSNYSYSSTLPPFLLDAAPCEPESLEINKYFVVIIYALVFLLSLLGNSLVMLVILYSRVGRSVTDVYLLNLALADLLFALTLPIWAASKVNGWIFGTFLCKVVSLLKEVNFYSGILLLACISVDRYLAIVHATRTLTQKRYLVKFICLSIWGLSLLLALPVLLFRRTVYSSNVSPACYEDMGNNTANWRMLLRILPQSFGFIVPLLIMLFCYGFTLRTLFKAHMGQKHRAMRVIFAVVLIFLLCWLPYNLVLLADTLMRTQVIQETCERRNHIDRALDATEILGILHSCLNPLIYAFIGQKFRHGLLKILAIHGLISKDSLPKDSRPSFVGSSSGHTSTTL

| Kd [1] | Compound | Kd [2] | Kd [3] |
| --- | --- | --- | --- |
| 35.2 ± 1.95 mM | N[C@@H](Cc1ccc(OS(=O)(=O)O)cc1)C(=O)O [sY, sulfotyrosine] | – | – |
| – | CXCL5 (from UniProt P42830) | 11 nM | 40 nM |
